Assay results from US6900177.
Non-standard residues stand in square brackets, D forms with d. No end group written: not given here.

Target: T1, lecithin:cholesterol acyltransferase (LCAT), purified from human plasma (human, UniProt P04180 25-440)
T1 sequence (looked up): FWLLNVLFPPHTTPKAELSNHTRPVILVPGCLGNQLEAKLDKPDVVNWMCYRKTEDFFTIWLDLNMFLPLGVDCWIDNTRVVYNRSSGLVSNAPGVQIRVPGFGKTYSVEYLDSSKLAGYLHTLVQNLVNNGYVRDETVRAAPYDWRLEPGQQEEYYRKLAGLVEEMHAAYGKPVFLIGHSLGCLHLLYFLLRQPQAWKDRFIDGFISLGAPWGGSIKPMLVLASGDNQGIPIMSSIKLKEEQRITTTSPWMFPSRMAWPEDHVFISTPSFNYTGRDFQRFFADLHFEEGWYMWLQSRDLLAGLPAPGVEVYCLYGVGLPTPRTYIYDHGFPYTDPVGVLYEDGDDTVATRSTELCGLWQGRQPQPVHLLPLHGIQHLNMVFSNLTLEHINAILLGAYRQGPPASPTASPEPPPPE
Assay: cell-based or functional assay

[dP][dV]LDLFRELLNELLEALKQKLK [peptide 48]
ACTIVITY (%) LCAT: 22%
